The values below come from article PMC3711072.

This assay concerns the target CCR3 (UniProt P51677).

Chain of CCL5 (P13501 24-91): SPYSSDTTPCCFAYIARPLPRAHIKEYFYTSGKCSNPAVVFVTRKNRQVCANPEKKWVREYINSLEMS
Chain of CCR3 (P51677 whole entry): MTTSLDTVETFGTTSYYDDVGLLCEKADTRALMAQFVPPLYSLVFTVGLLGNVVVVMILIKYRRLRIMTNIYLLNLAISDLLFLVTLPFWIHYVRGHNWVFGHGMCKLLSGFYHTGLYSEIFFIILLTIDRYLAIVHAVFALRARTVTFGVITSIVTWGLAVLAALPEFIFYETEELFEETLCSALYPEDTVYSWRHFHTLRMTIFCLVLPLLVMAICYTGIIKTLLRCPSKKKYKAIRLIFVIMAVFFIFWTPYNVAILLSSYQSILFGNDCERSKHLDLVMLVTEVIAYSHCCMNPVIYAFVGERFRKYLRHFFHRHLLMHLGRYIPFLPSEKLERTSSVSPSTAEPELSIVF

On to “CCL5 (from UniProt P13501 24-91) (ligand)”, for which the reduction of CCR3 surface expression on human eosinophils (flow cytometry), 12.5 nM CCL5, 15 and 60 min is 56.1%.
